The results in this text go back to publication PMC12108899.

This assay addresses hemocyanin from Macrobrachium acanthurus (Macrobrachium acanthurus). Briefly: AUC; sedimentation velocity, HcMac at 100, 200 and 300 ug/mL, Tris-HCl 100 mmol/L with NaCl 50 mmol/L, pH 7.0, 20 °C, absorbance at 280 nm, SEDFIT c(S) and c(M); single 19S species of about 450 kDa; hexamer of monomeric subunits.

What is called stoichiometry N is the number of molecules, sites or subunits per partner or assembly. Regarding “hemocyanin from Macrobrachium acanthurus (natural protein)”, the stoichiometry N was 6.
